In patent US20160130347A1 (Hoffmann-La Roche, published 2016):
Where a chain is given by its changes, count along the chain named.

B1: M4-3(A7)/ML2 IgG (antibody, V domains shown)
VH: QVQLQESGPGLVKPSQTLSLTCTVSGGSITDGYYWNWIRQHPGKGLEWIGYITFDGRNNYNPSLKSRVTISRDTSKNQFSLKLSSVTAADTAVYYCADFDYWGQGTLVTVSS
VL: DIQMTQSPSSLSASVGDRVTITCRASQGIRNYLNWYQQKPGKAPKLLIYYTSSLHSGVPSRFSGSGSGTDFTLTISSLQPEDFATYYCQQYSKLPWTFGQGTKVEIK
notes: Human IgG1 format
B2: M4-3(C1)/ML2(G3) IgG (antibody, V domains shown)
VH: B1 VH with D31S, R57S
VL: DIQMTQSPSSLSASVGDRVTITCRASQGIRNYLNWYQQKPGKAPKLLIYYTSSLHSGVPSRFSGSGSGTDYTLTISSLQPEDFATYYCQQYSALPWTFGQGTKVEIKR
notes: Human IgG1; also called MCSP M4-3(C1)ML2(G3)
B3: M4-3(C1)/ML2(C5) IgG (antibody, V domains shown)
VH: B1 VH with D31S, R57S
VL: B1 VL with Q27R, N31E, S52G, K93E
notes: Human IgG1 format
B4: M4-3/ML2 (E10) IgG (antibody, V domains shown)
VH: B1 VH with D31S, F54Y, R57S
VL: B1 VL with Q27Y, N31G, Y87H
notes: Human IgG1 format
B5: M4-3(C1)/ML2(E10) IgG (antibody, V domains shown)
VH: B1 VH with D31S, R57S
VL: B1 VL with Q27Y, N31G, Y87H
notes: Human IgG1 format
B6: M4-3(C1)/ML2 IgG (antibody, V domains shown)
VH: B1 VH with D31S, R57S
VL: B1 VL
notes: Human IgG1 format
B7: M4-3(A7)/ML2(G3) IgG (antibody, V domains shown)
VH: B1 VH
VL: B1 VL with F71Y, K93A
notes: Human IgG1 format
B8: M4-3(A7)/ML2(C5) IgG (antibody, V domains shown)
VH: B1 VH
VL: B1 VL with Q27R, N31E, S52G, K93E
notes: Human IgG1 format
B9: M4-3/ML2 (C5/G3) IgG (antibody, V domains shown)
VH: B1 VH with D31S, F54Y, R57S
VL: B1 VL with Q27R, N31E, S52G, K93A
notes: Human IgG1 format; also called MCSP ML2(C5-G3)
B10: M4-3(A7)/ML2(E10) IgG (antibody, V domains shown)
VH: B1 VH
VL: B1 VL with Q27Y, N31G, Y87H
notes: Human IgG1 format
B11: M4-3/ML2 (E10/G3) IgG (antibody, V domains shown)
VH: B1 VH with D31S, F54Y, R57S
VL: B1 VL with Q27Y, N31G, Y87H, K93A
notes: Human IgG1 format; also called MCSP ML2(E10-G3)
B12: M4-3/ML2 (C5) IgG (antibody, V domains shown)
VH: B1 VH with D31S, F54Y, R57S
VL: B1 VL with Q27R, N31E, S52G, K93E
notes: Human IgG1 format
B13: M4-3(D6)/ML2 IgG (antibody, V domains shown)
VH: B1 VH with D31S, R57K
VL: B1 VL
notes: Human IgG1 format
B14: M4-3(B7)/ML2 IgG (antibody, V domains shown)
VH: B1 VH with D31S, R57I
VL: B1 VL
notes: Human IgG1 format
B15: M4-3(B8)/ML2 IgG (antibody, V domains shown)
VH: B1 VH with D31S
VL: B1 VL
notes: Human IgG1 format
B16: M4-3/ML2(G3) IgG (antibody, V domains shown)
VH: B1 VH with D31S, F54Y, R57S
VL: B1 VL with F71Y, K93A
notes: Human IgG1 format
B17: hu Fab (MCSP)-Crossfab (CD3) (bispecific antibody)
chain 1: EVQLQESGPGLVKPSQSLSLTCSVTGYSITSGYYWNWIRQFPGNKLEWMGYITYDGSNNYNPSLKNRISITRDTSKNQFFLKLNSVTTEDTATYYCADFDYWGQGTTLTVSSASTKGPSVFPLAPSSKSTSGGTAALGCLVKDYFPEPVTVSWNSGALTSGVHTFPAVLQSSGLYSLSSVVTVPSSSLGTQTYICNVNHKPSNTKVDKKVEPKSCDGGGGSGGGGSDIQMTQSPSSLSASVGDRVTITCRASQDIRNYLNWYQQKPGKAPKLLIYYTSRLESGVPSRFSGSGSGTDYTLTISSLQPEDFATYYCQQGNTLPWTFGQGTKVEIKSSASTKGPSVFPLAPSSKSTSGGTAALGCLVKDYFPEPVTVSWNSGALTSGVHTFPAVLQSSGLYSLSSVVTVPSSSLGTQTYICNVNHKPSNTKVDKKVEPKSC
light: DIVLTQSPSSLSASLGDRVTISCSASQGIRNYLNWYQQRPDGTVKLLIYYTSSLHSGVPSRFSGSGSGTDYSLTISNLEPEDIATYYCQQYSKLPWTFGGGTKLEIKRTVAAPSVFIFPPSDEQLKSGTASVVCLLNNFYPREAKVQWKVDNALQSGNSQESVTEQDSKDSTYSLSSTLTLSKADYEKHKVYACEVTHQGLSSPVTKSFNRGEC
chain 2: EVQLVESGGGLVQPGGSLRLSCAASGYSFTGYTMNWVRQAPGKGLEWVALINPYKGVSTYNQKFKDRFTISVDKSKNTAYLQMNSLRAEDTAVYYCARSGYYGDSDWYFDVWGQGTLVTVSSASVAAPSVFIFPPSDEQLKSGTASVVCLLNNFYPREAKVQWKVDNALQSGNSQESVTEQDSKDSTYSLSSTLTLSKADYEKHKVYACEVTHQGLSSPVTKSFNRGEC
B18: hu Fab (MCSP)=Crossfab (CD3) (bispecific antibody)
chain 1: B17 chain 1
chain 2: EVQLVESGGGLVQPGGSLRLSCAASGYSFTGYTMNWVRQAPGKGLEWVALINPYKGVSTYNQKFKDRFTISVDKSKNTAYLQMNSLRAEDTAVYYCARSGYYGDSDWYFDVWGQGTLVTVSSASVAAPSVFIFPPSDEQLKSGTASVVCLLNNFYPREAKVQWKVDNALQSGNSQESVTEQDSKDSTYSLSSTLTLSKADYEKHKVYACEVTHQGLSSPVTKSFNRGECDGGGGSGGGGSDIVLTQSPSSLSASLGDRVTISCSASQGIRNYLNWYQQRPDGTVKLLIYYTSSLHSGVPSRFSGSGSGTDYSLTISNLEPEDIATYYCQQYSKLPWTFGGGTKLEIKRTVAAPSVFIFPPSDEQLKSGTASVVCLLNNFYPREAKVQWKVDNALQSGNSQESVTEQDSKDSTYSLSSTLTLSKADYEKHKVYACEVTHQGLSSPVTKSFNRGEC

These binders were tested against T1, human MCSP(D3 domain)-avi-his (human, UniProt Q6UVK1 1587-2221, limits assumed) (assay: ratio of ProteOn IgG KD against parental M4-3/ML2 IgG).
T1 construct: domain: D3 domain; also called hu-MCSP(D3 domain)-avi-his
T1 sequence (looked up): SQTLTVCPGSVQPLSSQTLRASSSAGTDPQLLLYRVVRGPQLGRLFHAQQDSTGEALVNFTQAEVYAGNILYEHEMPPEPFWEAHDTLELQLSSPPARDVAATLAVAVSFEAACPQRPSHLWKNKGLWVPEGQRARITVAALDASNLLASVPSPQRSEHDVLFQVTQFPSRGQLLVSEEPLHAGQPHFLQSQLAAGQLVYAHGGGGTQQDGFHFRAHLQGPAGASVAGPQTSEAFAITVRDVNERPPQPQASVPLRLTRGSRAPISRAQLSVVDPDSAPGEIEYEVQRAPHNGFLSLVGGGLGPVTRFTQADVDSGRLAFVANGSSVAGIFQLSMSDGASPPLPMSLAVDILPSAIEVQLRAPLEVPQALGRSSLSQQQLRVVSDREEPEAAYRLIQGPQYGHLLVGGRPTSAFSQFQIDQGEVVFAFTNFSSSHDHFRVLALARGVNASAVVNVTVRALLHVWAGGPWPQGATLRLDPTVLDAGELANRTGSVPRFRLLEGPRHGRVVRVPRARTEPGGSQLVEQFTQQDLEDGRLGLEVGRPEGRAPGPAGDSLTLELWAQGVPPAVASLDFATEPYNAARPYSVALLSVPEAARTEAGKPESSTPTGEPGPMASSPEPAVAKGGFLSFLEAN
Procedure: (§1) Briefly, carboxymethylated dextran biosensor chips (CM5, GE Healthcare) were activated with N-ethyl-N′-(3-dimethylaminopropyl)-carbodiimide hydrochloride (EDC) and N-hydroxysuccinimide (NHS) according to the supplier's instructions. Anti-human F(ab′)2 fragment specific capture antibody was diluted with 10 mM sodium acetate, pH 5.0 at 50 μg/ml before injection at a flow rate of 10 μl/minute to achieve approximately up to 10.000 response units (RU) of coupled capture antibody. Following the injection of the capture antibody, 1 M ethanolamine is injected to block unreacted groups. For kinetics measurements, Fabs from bacterial supernatant or purified Fabs were injected at a flow rate of 10 ul/minute for 300 s and a dissociation of 300 s for capture baseline stabilization. Capture levels were in the range of 100-500 RU. […] The surface of the sensorchip was regenerated by injection of glycine pH 1.5 for 30 s at 90 ul/min followed by injection of NaOH for 20 s at the same flow rate. Association rates (kon) and dissociation rates (koff) were calculated using a simple one-to-one Langmuir binding model (ProteOn XPR36 Evaluation Software or Scrubber software (BioLogic)) by simultaneously fitting the association and dissociation sensorgrams. The equilibrium dissociation constant (KD) was calculated as the ratio koff/kon.
(§2) Method exactly as described for the Fab fragments, just purified IgG from mammalian production were used.
In the case of B1, the “fold increase over parent (IgG KD, comparative binding affinity)” value (from here on “fold increase over parent”) is reported as 2.5 fold.
B2 was tested, and the “fold increase over parent” value was 28.6 fold.
For B3, the “fold increase over parent” value was 10 fold.
B4 was tested, and the “fold increase over parent” value was 2 fold.
For B5, the “fold increase over parent” value was 4 fold.
B6 was tested, and the “fold increase over parent” value was 2.2 fold.
In the case of B7, the “fold increase over parent” value is reported as 28.6 fold.
In the case of B8, the “fold increase over parent” value is reported as 28.6 fold.
With B9 the “fold increase over parent” value was 2.9 fold.
For B10, the “fold increase over parent” value was 6.7 fold.
With B11 the “fold increase over parent” value was 5 fold.
B12 was tested, and the “fold increase over parent” value was 5 fold.
In the case of B13, the “fold increase over parent” value is reported as 5 fold.
In the case of B14, the “fold increase over parent” value is reported as 4 fold.
With B15 the “fold increase over parent” value was 2.2 fold.
With B16 the “fold increase over parent” value was 6.7 fold.

These binders were tested against T2, cynomolgus MCSP D3 (cynomolgus) in the same assay as above.
T2 construct: domain: D3; also called Cyno MCSP; cynomolgus homologue
Procedure: as §1, §2
For B1, the “fold increase over parent” value was 2 fold.
For B2, the “fold increase over parent” value was 10 fold.
For B3, the “fold increase over parent” value was 6.7 fold.
For B4, the “fold increase over parent” value was 1 fold.
For B5, the “fold increase over parent” value was 3.3 fold.
For B6, the “fold increase over parent” value was 2.5 fold.
B7 was tested, and the “fold increase over parent” value was 10 fold.
For B8, the “fold increase over parent” value was 10 fold.
With B9 the “fold increase over parent” value was 2 fold.
For B10, the “fold increase over parent” value was 2.9 fold.
B11 was tested, and the “fold increase over parent” value was 2.2 fold.
B12 was tested, and the “fold increase over parent” value was 2 fold.
B13 was tested, and the “fold increase over parent” value was 2 fold.
With B14 the “fold increase over parent” value was 2.9 fold.
In the case of B15, the “fold increase over parent” value is reported as 2 fold.
With B16 the “fold increase over parent” value was 3.3 fold.

These binders were tested against human CD3 on T cells (human, UniProt P07766 23-126) (assay: cell-based or functional assay).
human CD3 on T cells, sequence (P07766 23-126 limits assumed): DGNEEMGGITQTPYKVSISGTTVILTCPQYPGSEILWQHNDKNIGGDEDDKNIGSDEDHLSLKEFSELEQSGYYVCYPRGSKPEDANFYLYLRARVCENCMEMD
In the case of B17, the “EC50 of killing (LDH release) of MV-3 cells, human PBMCs, E:T 10:1, ~24 h” value (“EC50 of killing” below) is reported as 25.4 pM.
In the case of B18, the “EC50 of killing” value is reported as 89.8 pM.

Each binder was assayed against human MCSP on tumor cells (human, UniProt Q6UVK1 30-2322) (assay: cell-based or functional assay).
human MCSP on tumor cells, sequence (Q6UVK1 30-2322): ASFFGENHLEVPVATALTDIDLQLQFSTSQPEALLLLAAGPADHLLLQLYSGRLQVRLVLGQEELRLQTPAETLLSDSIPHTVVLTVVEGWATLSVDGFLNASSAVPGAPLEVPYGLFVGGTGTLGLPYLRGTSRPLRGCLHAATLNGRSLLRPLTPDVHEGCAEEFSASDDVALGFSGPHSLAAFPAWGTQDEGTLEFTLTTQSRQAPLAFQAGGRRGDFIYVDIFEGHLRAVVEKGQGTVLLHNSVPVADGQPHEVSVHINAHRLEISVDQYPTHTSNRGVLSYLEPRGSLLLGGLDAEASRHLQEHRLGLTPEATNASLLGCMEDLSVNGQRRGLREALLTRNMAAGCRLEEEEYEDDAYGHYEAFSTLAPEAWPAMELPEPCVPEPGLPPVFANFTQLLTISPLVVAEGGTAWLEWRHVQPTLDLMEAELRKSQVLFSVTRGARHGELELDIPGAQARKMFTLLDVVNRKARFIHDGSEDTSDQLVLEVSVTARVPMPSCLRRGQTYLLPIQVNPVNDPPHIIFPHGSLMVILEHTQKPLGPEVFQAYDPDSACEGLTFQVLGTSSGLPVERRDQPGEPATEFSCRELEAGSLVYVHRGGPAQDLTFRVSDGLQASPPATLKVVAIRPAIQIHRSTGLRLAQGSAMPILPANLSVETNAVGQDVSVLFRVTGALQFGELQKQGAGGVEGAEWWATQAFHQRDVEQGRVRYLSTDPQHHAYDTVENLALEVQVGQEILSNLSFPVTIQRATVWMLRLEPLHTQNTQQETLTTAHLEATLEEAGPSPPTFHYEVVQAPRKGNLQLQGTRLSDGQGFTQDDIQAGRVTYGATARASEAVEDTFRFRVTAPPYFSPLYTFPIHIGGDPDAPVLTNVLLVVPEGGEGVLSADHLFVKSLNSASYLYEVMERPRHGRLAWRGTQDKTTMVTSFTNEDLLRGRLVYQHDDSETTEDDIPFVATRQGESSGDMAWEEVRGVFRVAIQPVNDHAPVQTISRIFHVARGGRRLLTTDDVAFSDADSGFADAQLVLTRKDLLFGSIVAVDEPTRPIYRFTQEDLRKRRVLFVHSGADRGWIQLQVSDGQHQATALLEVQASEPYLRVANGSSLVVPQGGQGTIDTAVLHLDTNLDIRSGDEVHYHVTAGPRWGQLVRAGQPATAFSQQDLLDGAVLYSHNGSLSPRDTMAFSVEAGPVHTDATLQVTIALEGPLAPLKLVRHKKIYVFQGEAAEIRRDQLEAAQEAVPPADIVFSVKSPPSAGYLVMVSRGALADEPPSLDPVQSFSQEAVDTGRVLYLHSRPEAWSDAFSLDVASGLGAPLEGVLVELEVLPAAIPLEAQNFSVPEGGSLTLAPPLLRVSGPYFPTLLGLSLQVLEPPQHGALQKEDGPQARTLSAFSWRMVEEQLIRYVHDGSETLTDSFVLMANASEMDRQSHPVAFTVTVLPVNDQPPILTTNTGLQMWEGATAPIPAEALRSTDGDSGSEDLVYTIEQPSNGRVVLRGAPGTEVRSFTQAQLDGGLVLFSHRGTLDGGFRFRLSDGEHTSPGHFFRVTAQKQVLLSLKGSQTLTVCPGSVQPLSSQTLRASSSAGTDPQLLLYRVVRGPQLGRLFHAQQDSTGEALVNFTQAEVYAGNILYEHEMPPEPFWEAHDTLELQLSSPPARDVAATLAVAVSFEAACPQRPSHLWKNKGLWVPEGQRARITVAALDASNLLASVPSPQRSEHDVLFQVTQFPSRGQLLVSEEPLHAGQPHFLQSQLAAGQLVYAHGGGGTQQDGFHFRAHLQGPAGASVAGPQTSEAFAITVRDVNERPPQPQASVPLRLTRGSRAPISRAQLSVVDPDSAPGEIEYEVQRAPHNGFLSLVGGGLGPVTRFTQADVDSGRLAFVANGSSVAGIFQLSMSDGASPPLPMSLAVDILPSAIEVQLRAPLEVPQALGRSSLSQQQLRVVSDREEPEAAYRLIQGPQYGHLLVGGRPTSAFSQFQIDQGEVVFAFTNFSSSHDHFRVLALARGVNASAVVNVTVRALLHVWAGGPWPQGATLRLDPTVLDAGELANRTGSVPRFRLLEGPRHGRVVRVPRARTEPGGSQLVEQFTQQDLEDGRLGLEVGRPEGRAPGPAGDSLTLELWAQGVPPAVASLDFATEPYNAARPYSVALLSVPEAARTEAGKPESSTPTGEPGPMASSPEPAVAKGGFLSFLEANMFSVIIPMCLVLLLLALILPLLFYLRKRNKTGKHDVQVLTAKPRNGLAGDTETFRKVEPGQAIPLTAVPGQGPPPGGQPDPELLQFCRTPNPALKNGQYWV
With B17 the “EC50 of killing” value was 25.4 pM.
For B18, the “EC50 of killing” value was 89.8 pM.
